The Immune Epitope Database (IEDB)
pKd: −log10 of the molar value.

What was measured:
HLA-B*27:05 = test: IEDB peptide-MHC binding, purified MHC/direct/fluorescence; filed as Kd, often an IC50 or EC50 that approximates it; ≥ and ≤ were set here for values at or beyond the usual limits of such assays; conditions: source organism: Mammarenavirus lassaense
HLA-A*02:02 = test: IEDB peptide-MHC binding, purified MHC/competitive/radioactivity; filed as Kd, often an IC50 or EC50 that approximates it; ≥ and ≤ were set here for values at or beyond the usual limits of such assays; conditions: source organism: Vaccinia virus WR
HLA-A*02:03 = test: as above; conditions: source organism: Vaccinia virus WR
HLA-A*02:06 = test: as above; conditions: source organism: Vaccinia virus WR
HLA-A*02:01 = test: IEDB peptide-MHC binding, purified MHC/direct/fluorescence; filed as Kd, often an IC50 or EC50 that approximates it; ≥ and ≤ were set here for values at or beyond the usual limits of such assays
HLA-A*69:01 = test: as above
HLA-B*07:02 [1] = test: IEDB peptide-MHC binding, purified MHC/competitive/radioactivity; filed as Kd, often an IC50 or EC50 that approximates it; ≥ and ≤ were set here for values at or beyond the usual limits of such assays
HLA-A*01:01 = test: IEDB peptide-MHC binding, purified MHC/direct/fluorescence; filed as Kd, often an IC50 or EC50 that approximates it; ≥ and ≤ were set here for values at or beyond the usual limits of such assays; conditions: source organism: SARS-CoV1
HLA-A*31:01 = test: IEDB peptide-MHC binding, purified MHC/competitive/radioactivity; filed as Kd, often an IC50 or EC50 that approximates it; ≥ and ≤ were set here for values at or beyond the usual limits of such assays; conditions: source organism: SARS coronavirus Tor2
HLA-A*33:01 = test: as above; conditions: source organism: SARS coronavirus Tor2
HLA-A*68:01 = test: as above; conditions: source organism: SARS coronavirus Tor2
HLA-B*53:01 = test: as above; conditions: source organism: Dengue virus 2 Jamaica/1409/1983
HLA-A*03:01 = test: IEDB peptide-MHC binding, purified MHC/direct/fluorescence; filed as Kd, often an IC50 or EC50 that approximates it; ≥ and ≤ were set here for values at or beyond the usual limits of such assays; conditions: source organism: Mammarenavirus juninense
HLA-B*07:02 [2] = test: as above; conditions: source organism: dengue virus type 4
HLA-B*51:01 = test: IEDB peptide-MHC binding, purified MHC/competitive/radioactivity; filed as Kd, often an IC50 or EC50 that approximates it; ≥ and ≤ were set here for values at or beyond the usual limits of such assays; conditions: source organism: Dengue virus 3 Martinique/1243/1999
[3] = source organism: Vibrio vulnificus
[4] = source organism: Dengue virus 3 Martinique/1243/1999

Sequence	pKd (HLA-A*02:02)	pKd (HLA-A*02:03)	pKd (HLA-A*02:06)	further results
RRLKAEAQM	–	–	–	pKd (HLA-B*27:05): 7.28
RTNDLTALL	8.44	8.14	6.92	–
RVSENTGMGM	6.08	7.05	6.84	–
SADNHPKMI	5.09	≤ 4.36	≤ 4.11	–
SANMDWRSLT	5.75	4.95	≤ 4.32	–
SAWESFWRI	–	–	–	pKd (HLA-A*02:01; [3]): 7.89; pKd (HLA-A*69:01; [3]): 8.85
SLTTIGTIA	8.98	8.43	6.31	–
SPGYVLGVFL	–	–	–	pKd (HLA-B*07:02 [1]; source organism: Dengue virus 4 Dominica/814669/1981): 6.62
SPPETQKAEL	–	–	–	pKd (HLA-B*07:02 [1]; [4]): 7.55
SSSLTSLLK	–	–	–	pKd (HLA-A*01:01): 5.96; pKd (HLA-A*31:01): 5.32; pKd (HLA-A*33:01): ≤ 4.38; pKd (HLA-A*68:01): 5.03
SVTRLENLMW	–	–	–	pKd (HLA-B*53:01): 6.36
TILDDNLYKV	5.97	5.79	7.31	–
TLHFLTRGK	–	–	–	pKd (HLA-A*03:01): 6.46
TMGPHPAGV	–	–	–	pKd (HLA-A*02:01; source organism: Burkholderia pseudomallei): 9.15
TPEGIIPTL	–	–	–	pKd (HLA-A*69:01; source organism: dengue virus type 4): 5.57; pKd (HLA-B*07:02 [2]): 5.03
TPMLRHTIEN	–	–	–	pKd (HLA-B*07:02 [1]; [4]): 5.99
TPRAKRGTA	–	–	–	pKd (HLA-B*07:02 [1]; source organism: Dengue virus 1 Brazil/97-11/1997): 6.64
TPVTTWENV	–	–	–	pKd (HLA-B*51:01): 4.89
TQLFKYVPSA	≤ 4.15	≤ 4.15	≤ 4.16	–
TVKNVDIIDL	≤ 4.50	5.08	4.91	–
